The record followed here is patent publication US11584938B2, “Plant EPSPS mutant containing L195P and S247G mutations and encoding gene and use thereof” (GEVOTO LLC, priority 2017, dated 2023).

The assay relates to transgenic rice plants. The assay can be described thus: glyphosate resistance of the EPSPS mutant in transgenic rice plants sprayed with Roundup 41% ammonium glyphosate. It counts as in vivo, rice (Nipponbare). The gist of the method:
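EPSPS mutant genes were cloned into pGVP1 and introduced into Nipponbare rice embryo-derived calluses via Agrobacterium EHA105 (OD 0.2, 10 min infection, 2–3 days co-culture at 25 °C in the dark). Calluses went through recovery, two 14-day screening rounds at 30 °C, two differentiation rounds and rooting to regenerate transgenic plants.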

The mark [1] stands for this setting: 1× dosage 1060 g/hectare glyphosate sprayed, recorded on 10th day.
[2] abbreviates: 2× dosage 2120 g/hectare sprayed to plants surviving 1×, recorded 10 days later.
[3] abbreviates: 5× dosage 5300 g/hectare sprayed to plants surviving 2×, recorded 10 days later.
[4] abbreviates: 20× dosage 21200 g/hectare sprayed to plants surviving 5×, recorded 10 days later.

B1: T5: wheat EPSPS mutant, SEQ ID NO: 24, mutations L216(195)P and S269(247)G (protein)
chain: MATSVAAPAAPAGAEEVVLQPIREISGAVQLPGSKSLSNRILLLSALSEGTTVVDNLLNSEDVHYMLEALEALGLSVEADKVAKRAVVVGCGGRFPVEKDAKEEVKLFLGNAGTAMRPLTAAVVAAGGNATYVLDGVPRMRERPIGDLVVGLQQLGADVDCFLGTNCPPVRINGKGGLPGGKVKLSGSISSQYLSSLLMAAPLALEDVEIEIIDKPISVPYVEMTLKLMEHFGVTAEHSDSWDRFYIKGGQKYKSPGNAYVEGDASSAGYFLAGAAITGGTVTVEGCGTTSLQGDVKFAEVLEMMGAKVTWTDTSVTVTGPPRQPFGRKHLKAVDVNMNKMPDVAMTLAVVALFADGPTAIRDVASWRVKETERMVAIRTELTKLGATVEEGPDYCIITPPEKLNITAIDTYDDHRMAMAFSLAACAEVPVTIRDPGCTRKTFPNYFDVLSTFVKN
On to B1, for which, under setting [1], the “%++&+++ (percentage of plant having medium and high glyphosate resistance to the total number of plants observed)” value was found to be 45.5%; the “number of plants denoted by + (low glyphosate resistance)” value (“number … (low glyphosate resistance)” below) is reported as 6; the “number of plants denoted by ++ (medium glyphosate resistance)” value (“number … (medium glyphosate resistance)” below) turned out to be 3; the “number of plants denoted by +++ (high glyphosate resistance)” value (“number of plants denoted by +++” below) came to 7. Moreover, the “number of plants denoted by − (no glyphosate resistance)” value (shortened to “number … (no glyphosate resistance)”) under setting [1] stood at 6. For the same molecule, the “glyphosate resistance / survival of the rice transformed by the EPSPS, in words” value (“glyphosate resistance / survival” for short) (1× glyphosate dosage) is “obviously superior to that of the rice seedlings transformed by T0”. Under setting [2], the “%++&+++ (percentage of plant having medium and high glyphosate resistance to the total number of plants observed)” value stood at 84.6%; the “number … (low glyphosate resistance)” value is recorded as 8; the “number … (medium glyphosate resistance)” value is given as 4; the “number of plants denoted by +++” value turned out to be 0. In addition, the “number … (no glyphosate resistance)” value under setting [2] stood at 10. Moreover, for the setting “2× glyphosate dosage”, the “glyphosate resistance / survival” value was “some of the transgenic rice seedlings transformed by T4, T1 and T5 still survived”. Moreover, under setting [3], the “&++&+++ (percentage of plant having medium and high glyphosate resistance to the total number of plants observed)” value was found to be 18.2%; the “number … (low glyphosate resistance)” value stood at 5; the “number … (medium glyphosate resistance)” value worked out at 4; the “number of plants denoted by +++” value came to 0. Under setting [3], the “number … (no glyphosate resistance)” value stood at 13. Further, where the note is “5× glyphosate dosage”, the “glyphosate resistance / survival” value is “some of the transgenic rice seedlings transformed by T4, T1 and T5 still survived”. For the same molecule, under setting [4], the “&++&+++ (percentage of plant having medium and high glyphosate resistance to the total number of plants observed)” value was found to be 13.6%; the “number … (low glyphosate resistance)” value came to 3; the “number … (medium glyphosate resistance)” value turned out to be 3; the “number of plants denoted by +++” value was 0. Also, the “number … (no glyphosate resistance)” value under setting [4] came out at 16.

B2: T6: wheat EPSPS mutant, SEQ ID NO: 26, mutations L216(195)P, S269(247)G and P118(101)S (protein)
chain: MATSVAAPAAPAGAEEVVLQPIREISGAVQLPGSKSLSNRILLLSALSEGTTVVDNLLNSEDVHYMLEALEALGLSVEADKVAKRAVVVGCGGRFPVEKDAKEEVKLFLGNAGTAMRSLTAAVVAAGGNATYVLDGVPRMRERPIGDLVVGLQQLGADVDCFLGTNCPPVRINGKGGLPGGKVKLSGSISSQYLSSLLMAAPLALEDVEIEIIDKPISVPYVEMTLKLMEHFGVTAEHSDSWDRFYIKGGQKYKSPGNAYVEGDASSAGYFLAGAAITGGTVTVEGCGTTSLQGDVKFAEVLEMMGAKVTWTDTSVTVTGPPRQPFGRKHLKAVDVNMNKMPDVAMTLAVVALFADGPTAIRDVASWRVKETERMVAIRTELTKLGATVEEGPDYCIITPPEKLNITAIDTYDDHRMAMAFSLAACAEVPVTIRDPGCTRKTFPNYFDVLSTFVKN
For B2, under setting [1], the “%++&+++ (percentage of plant having medium and high glyphosate resistance to the total number of plants observed)” value stood at 85.9%; the “number … (low glyphosate resistance)” value came out at 7; the “number … (medium glyphosate resistance)” value was 15; the “number of plants denoted by +++” value was found to be 52. In addition, under setting [1], the “number … (no glyphosate resistance)” value is given as 4. Besides, the “glyphosate resistance / survival” value (1× glyphosate dosage) is “had relatively high resistance to glyphosate”. Also, under setting [2], the “%++&+++ (percentage of plant having medium and high glyphosate resistance to the total number of plants observed)” value is given as 0.0%; the “number … (low glyphosate resistance)” value is recorded as 4; the “number … (medium glyphosate resistance)” value was 25; the “number of plants denoted by +++” value was 41. Moreover, the “number … (no glyphosate resistance)” value under setting [2] turned out to be 8. Under setting [3], the “&++&+++ (percentage of plant having medium and high glyphosate resistance to the total number of plants observed)” value worked out at 76.9%; the “number … (low glyphosate resistance)” value is recorded as 9; the “number … (medium glyphosate resistance)” value is listed as 37; the “number of plants denoted by +++” value was found to be 23. Also, the “number … (no glyphosate resistance)” value under setting [3] worked out at 9. For the same molecule, under setting [4], the “&++&+++ (percentage of plant having medium and high glyphosate resistance to the total number of plants observed)” value was determined as 71.8%; the “number … (low glyphosate resistance)” value stood at 7; the “number … (medium glyphosate resistance)” value turned out to be 56; the “number of plants denoted by +++” value worked out at 0. Also, under setting [4], the “number … (no glyphosate resistance)” value is listed as 15.

B3: R0: wild-type rice EPSPS, amino acid sequence SEQ ID NO: 28; control (protein, listed as Oryza sativa)
chain: MASNAAAAAAKAEEIVLQPIREISGAVQLPGSKSLSNRILLLSALSEGTTVVDNLLNSEDVHYMLEALKALGLSVEADKVAKRAVVVGCGGKFPVEKDAKEEVQLFLGNAGTAMRPLTAAVTAAGGNATYVLDGVPRMRERPIGDLVVGLKQLGADVDCFLGTECPPVRVKGIGGLPGGKVKLSGSISSQYLSALLMAAPLALGDVEIEIIDKLISIPYVEMTLRLMERFGVKAEHSDSWDRFYIKGGQKYKSPGNAYVEGDASSASYFLAGAAITGGTVTVQGCGTTSLQGDVKFAEVLEMMGAKVTWTDTSVTVTGPPREPYGKKHLKAVDVNMNKMPDVAMTLAVVALFADGPTAIRDVASWRVKETERMVAIRTELTKLGASVEEGPDYCIITPPEKLNITAIDTYDDHRMAMAFSLAACADVPVTIRDPGCTRKTFPNYFDVLSTFVRN
Take B3: under setting [1], the “%++&+++ (percentage of plant having medium and high glyphosate resistance to the total number of plants observed)” value is reported as 0.0%; the “number … (low glyphosate resistance)” value is 1; the “number … (medium glyphosate resistance)” value is given as 0; the “number of plants denoted by +++” value worked out at 0. Also, the “number … (no glyphosate resistance)” value under setting [1] was 30. Besides, the “glyphosate resistance / survival” value (1× glyphosate dosage) is “had no resistance, one was seriously damaged, and all the others died”. Further, under setting [2], the “%++&+++ (percentage of plant having medium and high glyphosate resistance to the total number of plants observed)” value turned out to be 45.8%; the “number … (low glyphosate resistance)” value was found to be 0; the “number … (medium glyphosate resistance)” value was determined as 0; the “number of plants denoted by +++” value came to 0. Under setting [2], the “number … (no glyphosate resistance)” value was found to be 31. Further, under setting [3], the “&++&+++ (percentage of plant having medium and high glyphosate resistance to the total number of plants observed)” value was found to be 0.0%; the “number … (low glyphosate resistance)” value amounted to 0; the “number … (medium glyphosate resistance)” value worked out at 0; the “number of plants denoted by +++” value amounted to 0. Also, the “number … (no glyphosate resistance)” value under setting [3] was found to be 31. In addition, under setting [4], the “&++&+++ (percentage of plant having medium and high glyphosate resistance to the total number of plants observed)” value is 0.0%; the “number … (low glyphosate resistance)” value is on record as 0; the “number … (medium glyphosate resistance)” value is 0; the “number of plants denoted by +++” value turned out to be 0. In addition, the “number … (no glyphosate resistance)” value under setting [4] was 31.
